This is an account of results in patent publication US11466260B2, “Thermostable haloarchaeal inorganic pyrophosphatase” (UNIVERSITY OF FLORIDA RESEARCH FOUNDATION, INCORPORATED, priority 2015, dated 2022).

Series [1] can be described thus: Coupled assay of ubiquitin-like protein adenylation. Type of series: biochemical, Haloferax volcanii. Particulars: UbaA and HvPPA with ATP and SAMP1, 2 M NaCl, 42° C. How it is done:
FIGS. 7A-7B. on Haloferax volcanii inorganic phyrophosphatase (HvPPA) activity solvent and coupled adenylation assay at high temperature and low water activity. A) Schematic of the coupled assay. Adenylation of the ubiquitin-like SAMP by the E1-like enzyme (UbaA) was monitored by HvPPA mediated hydrolysis of the PPi (P2O7^4−) by-product to 2 Pi (2 moles HPO4^2−) at 50° C. B) Generation of Pi correlated with the addition of ATP, UbaA, HvPPA and SAMP1 to the assay buffer. ΔGG, C-terminal diglycine residue deletion.
UbaA-mediated hydrolysis of ATP to AMP and PPi in the presence of the ubiquitin-like SAMP1 was monitored by coupled assay with HvPPA. Proteins were buffer-exchanged with HEPES-salt buffer in Nanopure H2O prior to use. Reaction mixtures (500 μl total) containing 20 μM UbaA, 20 μM SAMP1, 0.5 μM HvPPA, 2.5 mM nucleotide, 2.5 mM MgCl2, 50 μM ZnCl2 in high-salt buffer (2 M NaCl and 50 mM HEPES in Nanopure H2O, pH 7.5) were incubated at 37-42° C. for 1 h. Nucleotides were ATP, AMP, ADP, AMP-PNP, CTP, GTP, TTP and UTP. Proteins were removed by Ultracel-3 centrifugal filtration prior to determining orthophosphate levels by malachite green assay modified as described above. Assay mixtures with nucleotide alone were used for individual background subtraction.

For a further series, the target named is T1, HvPPA (Haloferax volcanii, UniProt D4GT97).
T1 construct: thrombin-cleavage site (linker between His6 and HvPPA) (N); made in house; host or cells: Haloferax volcanii H26-pJAM2920
T1 sequence (D4GT97 1-177): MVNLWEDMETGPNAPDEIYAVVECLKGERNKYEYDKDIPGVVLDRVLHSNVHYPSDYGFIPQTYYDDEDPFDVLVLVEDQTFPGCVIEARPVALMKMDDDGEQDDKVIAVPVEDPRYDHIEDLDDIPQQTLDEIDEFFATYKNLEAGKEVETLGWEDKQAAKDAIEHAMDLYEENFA
Description: Sodium fluoride-based inhibition of HvPPA. Type of series: biochemical.

Description for HvPPA: A) HvPPA (1.3 μg) was assayed in 1 ml reaction volume containing 1 mM PPi, 10 mM MgCl2, 3 M NaCl and 20 mM Tris-Cl buffer pH 7.5 supplemented with NaF as indicated. Reactions were monitored for 15 min at RT.
HvPPA-mediated hydrolysis of PPi to Pi was determined spectrophotometrically. Reagents were in nanopure water (Barnstead/Thermolyne Nanopure lab water system). Sodium pyrophosphate tetrabasic decahydrate (Sigma Aldrich) was used as a substrate. For kinetic measurements, reaction mixtures (500 μl total) contained 0.5-1 μg HvPPA and 1 mM PPi in high-salt buffer (3 M NaCl and 20 mM Tris-HCl, pH 8.5). Reactions were incubated at 42° C. for 1-3 min. Orthophosphate levels were determined by malachite green assay. Briefly, 2.5 ml of 14% (w/v) (NH4)2MoO4 and 0.2 ml of 11% (v/v) TWEEN 20 ® (Polyoxyethylene sorbitan monolaurate) were added into a 10-ml color reagent I (containing 1.67 ml conc. sulfuric acid, 8.33 ml nanopure H2O, and 12.22 mg malachite green). In triplicate, 50 μl of the color reagent was mixed with 200 μl of the reaction mixture and incubated at room temperature for 10 min. The formation of (MG^+)(H2PMo12O40) (where MG^+ represents ionized malachite green) was monitored at A630. A less sensitive malachite green assay was also used in which reaction aliquots (50 μl) were mixed with 250 μl color reagent II and 10 μl 1.5% (v/v) TWEEN 20 ® (Polyoxyethylene sorbitan monolaurate) in triplicate; product formation was immediately monitored at A650. Color reagent II was generated by mixing 1 volume of 4.2% (w/v) (NH4)2MoO4 in 5 N HCl with 3 volumes of 0.2% (w/v) malachite green; after 30 minutes, the solution was filtered with a 0.45 μm filter and stored at room temperature. Freeze-dried KH2PO4 was used as the standard. Assay mixtures with PPi minus HvPPA were used for individual background subtraction. All proteins used in this assay were buffer-exchanged with Tris-high-salt buffer in nanopure H2O prior to use. All experiments were performed in triplicate and the mean±standard deviation (S.D.) was calculated.

B1: HvPPA: Class A type inorganic pyrophosphatase from Haloferax volcanii, amino acid sequence of SEQ ID NO: 2 (protein, listed as Haloferax volcanii)
chain: MVNLWEDMETGPNAPDEIYAVVECLKGERNKYEYDKDIPGVVLDRVLHSNVHYPSDYGFIPQTYYDDEDPFDVLVLVEDQTFPGCVIEARPVALMKMDDDGEQDDKVIAVPVEDPRYDHIEDLDDIPQQTLDEIDEFFATYKNLEAGKEVETLGWEDKQAAKDAIEHAMDLYEENFA
As for B1, the “Pi detected in coupled adenylation assay” value in series [1] is recorded as “Significant levels of Pi were detected”. Moreover, the Inhibitors entry with HvPPA was “NaF”.
